Results published in patent publication US20230303711A1.

Legend:
[1] = molecular target: Fc-tagged human CD47-ECD protein (CD47-Fc) (human); assay: ELISA on coated human CD47-Fc; row printed as Affinity (µg/mL)
[2] = molecular target: His-tagged human CD47-ECD protein (CD47-His) (human) (UniProt Q08722); assay: competitive ELISA on coated CD47-His (2 µg/mL); blocked ligand SIRPα-Fc-Bio (0.1 µg/mL), HRP-streptavidin, OD450
His-tagged human CD47-ECD protein (CD47-His) (human), sequence (Q08722 other isoform, or with tags, fused parts or gaps): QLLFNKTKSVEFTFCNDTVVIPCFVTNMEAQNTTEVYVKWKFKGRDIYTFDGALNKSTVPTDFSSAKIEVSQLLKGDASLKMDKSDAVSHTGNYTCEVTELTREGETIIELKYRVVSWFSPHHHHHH

Fc-tagged human CD47-ECD protein (CD47-Fc) (human), sequence (chain, as listed by the source limits assumed): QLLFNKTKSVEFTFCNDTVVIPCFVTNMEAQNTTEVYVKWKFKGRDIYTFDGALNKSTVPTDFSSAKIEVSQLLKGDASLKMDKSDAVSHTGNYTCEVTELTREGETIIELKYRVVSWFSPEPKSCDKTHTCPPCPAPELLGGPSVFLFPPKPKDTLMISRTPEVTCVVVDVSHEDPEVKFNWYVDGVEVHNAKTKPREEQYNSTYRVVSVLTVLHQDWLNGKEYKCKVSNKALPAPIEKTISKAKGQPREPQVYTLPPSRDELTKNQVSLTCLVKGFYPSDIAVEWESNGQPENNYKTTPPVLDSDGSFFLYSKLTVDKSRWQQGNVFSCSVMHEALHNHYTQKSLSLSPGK

| EC50 [1] [µg/mL] | parameter C of the printed 4-parameter fit (OD does not fall, A 1.192, D 1.394; not an IC50) [2] [µg/mL] | parameter C of the printed 4-parameter fit (OD does not fall, A 1.343, D 8.036; not an IC50) [2] [mg/mL] | parameter C of the printed 4-parameter fit (OD only falls from A 1.633 to D 1.446; not an IC50) [2] [µg/mL] | Substance |
| --- | --- | --- | --- | --- |
| 0.092 |  |  |  | Antibody Hu5F9-G4 |
|  | 5.76 | 13.4 | 1.95 | IgG (antibody) |
